Results: the MegaScale stability set (Tsuboyama et al. 2023)

B1: r16_88_TrROS_Hall (parent)
chain: EVIELKIKFKTPEQREKLKEIAKKLNAEVVEEKDGEVIIRFKTPEQAERALKEAEKLGAEVEL

Variants of: B1
Assay: folding stability dG (cDNA display proteolysis); higher = more stable
Details: PBS, room temperature

In order of falling “folding stability dG” value:
1. EVIELKIKFKTPEQREKLKEIAKKLNAEVVEEKDGEVIIRFKTPEQAERALKEAEKLGAEVEW  4.73 kcal/mol
2. EVIELKIKFKTPEQREKLKEIAKKLNAEVVEEKDGEVIIRFKTPEQAERALKEAEKLGAEVEP  4.69 kcal/mol
3. EVIELKIKFKTPEQREKLKEIAKKLNAEVVEEKDGEVIIRFKTPEQAERALKEAEKLGAEVDL  4.59 kcal/mol
4. EVIELKIKFKTPEQREKLKEIAKKLNAEVVEEKDGEVIIRFKTPEQAERALKEAEKLGAEVCL  4.59 kcal/mol
5. EVIELKIKFKTPEQREKLKEIAKKLNAEVVEEKDGEVIIRFKTPEQAERALKEAEKLGAEVEH  4.59 kcal/mol
6. EVIELKIKFKTPEQREKLKEIAKKLNAEVVEEKDGEVIIRFKTPEQAERALKEAEKLGAEVEK  4.56 kcal/mol
7. EVIELKIKFKTPEQREKLKEIAKKLNAEVVEEKDGEVIIRFKTPEQAERALKEAEKLGAEVNL  4.53 kcal/mol
8. EVIELKIKFKTPEQREKLKEIAKKLNAEVVEEKDGEVIIRFKTPEQAERALKEAEKLGAEVAL  4.5 kcal/mol
9. EVIELKIKFKTPEQREKLKEIAKKLNAEVVEEKDGEVIIRFKTPEQAERALKEAEKLGAEVSL  4.5 kcal/mol
10. EVIELKIKFKTPEQREKLKEIAKKLNAEVVEEKDGEVIIRFKTPEQAERALKEAEKLGAEVGL  4.46 kcal/mol
11. EVIELKIKFKTPEQREKLKEIAKKLNAEVVEEKDGEVIIRFKTPEQAERALKEAEKLGAEVEC  4.44 kcal/mol
12. EVIELKIKFKTPEQREKLKEIAKKLNAEVVEEKDGEVIIRFKTPEQAERALKEAEKLGAEVTL  4.4 kcal/mol
13. EVIELKIKFKTPEQREKLKEIAKKLNAEVVEEKDGEVIIRFKTPEQAERALKEAEKLGAEVES  4.39 kcal/mol
14. EVIELKIKFKTPEQREKLKEIAKKLNAEVVEEKDGEVIIRFKTPEQAERALKEAEKLGAEVEG  4.38 kcal/mol
15. EVIELKIKFKTPEQREKLKEIAKKLNAEVVEEKDGEVIIRFKTPEQAERALKEAEKLGAEVHL  4.37 kcal/mol
16. EVIELKIKFKTPEQREKLKEIAKKLNAEVVEEKDGEVIIRFKTPEQAERALKEAEKLGAEVIL  4.35 kcal/mol
17. EVIELKIKFKTPEQREKLKEIAKKLNAEVVEEKDGEVIIRFKTPEQAERALKEAEKLGAEVVL  4.35 kcal/mol
18. EVIELKIKFKTPEQREKLKEIAKKLNAEVVEEKDGEVIIRFKTPEQAERALKEAEKLGAEVEY  4.35 kcal/mol
19. EVIELKIKFKTPEQREKLKEIAKKLNAEVVEEKDGEVIIRFKTPEQAERALKEAEKLGAEVED  4.33 kcal/mol
20. EVIELKIKFKTPEQREKLKEIAKKLNAEVVEEKDGEVIIRFKTPEQAERALKEAEKLGAEVQL  4.3 kcal/mol
21. EVIELKIKFKTPEQREKLKEIAKKLNAEVVEEKDGEVIIRFKTPEQAERALKEAEKLGAEVEN  4.3 kcal/mol
22. EVIELKIKFKTPEQREKLKEIAKKLNAEVVEEKDGEVIIRFKTPEQAERALKEAEKLGAEVER  4.28 kcal/mol
23. EVIELKIKFKTPEQREKLKEIAKKLNAEVVEEKDGEVIIRFKTPEQAERALKEAEKLGAEVFL  4.25 kcal/mol
24. EVIELKIKFKTPEQREKLKEIAKKLNAEVVEEKDGEVIIRFKTPEQAERALKEAEKLGAEVEV  4.25 kcal/mol
25. EVIELKIKFKTPEQREKLKEIAKKLNAEVVEEKDGEVIIRFKTPEQAERALKEAEKLGAEVML  4.24 kcal/mol
26. EVIELKIKFKTPEQREKLKEIAKKLNAEVVEEKDGEVIIRFKTPEQAERALKEAEKLGAEVET  4.24 kcal/mol
27. EVIELKIKFKTPEQREKLKEIAKKLNAEVVEEKDGEVIIRFKTPEQAERALKEAEKLGAEVEM  4.23 kcal/mol
28. EVIELKIKFKTPEQREKLKEIAKKLNAEVVEEKDGEVIIRFKTPEQAERALKEAEKLGAEVEE  4.22 kcal/mol
29. EVIELKIKFKTPEQREKLKEIAKKLNAEVVEEKDGEVIIRFKTPEQAERALKEAEKLGAEVEI  4.22 kcal/mol
30. EVIELKIKFKTPEQREKLKEIAKKLNAEVVEEKDGEVIIRFKTPEQAERALKEAEKLGAEVLL  4.21 kcal/mol
31. EVIELKIKFKTPEQREKLKEIAKKLNAEVVEEKDGEVIIRFKTPEQAERALKEAEKLGAEVKL  4.17 kcal/mol
32. EVIELKIKFKTPEQREKLKEIAKKLNAEVVEEKDGEVIIRFKTPEQAERALKEAEKLGAEVEA  4.17 kcal/mol
33. EVIELKIKFKTPEQREKLKEIAKKLNAEVVEEKDGEVIIRFKTPEQAERALKEAEKLGAEVYL  4.12 kcal/mol
34. EVIELKIKFKTPEQREKLKEIAKKLNAEVVEEKDGEVIIRFKTPEQAERALKEAEKLGAEVEF  4.07 kcal/mol
35. EVIELKIKFKTPEQREKLKEIAKKLNAEVVEEKDGEVIIRFKTPEQAERALKEAEKLGAEVRL  3.94 kcal/mol
36. EVIELKIKFKTPEQREKLKEIAKKLNAEVVEEKDGEVIIRFKTPEQAERALKEAEKLGAEVWL  3.87 kcal/mol
37. EVIELKIKFKTPEQREKLKEIAKKLNAEVVEEKDGEVIIRFKTPEQAERALKEAEKLGAEVPL  3.84 kcal/mol
38. EVIELKIKFKTPEQREKLKEIAKKLNAEVVEEKDGEVIIRFKTPEQAERALKEAEKLGAEYEL  3.79 kcal/mol
